For test [1], the target named is microtubules.
Test [2] has as its target microtubules. In words: co-sedimentation; microtubule pelleting assay: 0.7 µM motor with 2 µM microtubules and 0.1 mM Mg·ADP in HEM100 (10 mM HEPES pH 7.2, 1 mM EGTA, 1 mM MgCl2, 100 mM NaCl); centrifugation, SDS-PAGE; corrected for motor that pelleted without microtubules.

B1: wild-type Ncd dimeric motor protein (MGSM-H293-K700) (domain or fragment)
chain: MGSMHAALSTEVVHLRQRTEELLRCNEQQAAELETCKEQLFQSNMERKELHNTVMDLRGNIRVFCRIRPPLESEENRMCCTWTYHDESTVELQSIDAQAKSKMGQQIFSFDQVFHPLSSQSDIFEMVSPLIQSALDGYNICIFAYGQTGSGKTYTMDGVPESVGVIPRTVDLLFDSIRGYRNLGWEYEIKATFLEIYNEVLYDLLSNEQKDMEIRMAKNNKNDIYVSNITEETVLDPNHLRHLMHTAKMNRATASTAGNERSSRSHAVTKLELIGRHAEKQEISVGSINLVDLAGSESPKTSTRMTETKNINRSLSELTNVILALLQKQDHIPYRNSKLTHLLMPSLGGNSKTLMFINVSPFQDCFQESVKSLRFAASVNSCKMTKAKRNRYLNNSVANSSTQSNNSGSFDK
On to B1, for which the K (M,MT) of steady-state ATPase, 0.5 µM motor + 0-25 µM microtubules in test [1] came to 17 µM. Also, the MT binding with ADP (fraction bound) (fraction bound) in test [2] turned out to be 0.2.

B2: NcdY485K dimeric motor protein (MGSM-H293-K700) (domain or fragment)
chain: MGSMHAALSTEVVHLRQRTEELLRCNEQQAAELETCKEQLFQSNMERKELHNTVMDLRGNIRVFCRIRPPLESEENRMCCTWTYHDESTVELQSIDAQAKSKMGQQIFSFDQVFHPLSSQSDIFEMVSPLIQSALDGYNICIFAYGQTGSGKTYTMDGVPESVGVIPRTVDLLFDSIRGYRNLGWEYEIKATFLEIKNEVLYDLLSNEQKDMEIRMAKNNKNDIYVSNITEETVLDPNHLRHLMHTAKMNRATASTAGNERSSRSHAVTKLELIGRHAEKQEISVGSINLVDLAGSESPKTSTRMTETKNINRSLSELTNVILALLQKQDHIPYRNSKLTHLLMPSLGGNSKTLMFINVSPFQDCFQESVKSLRFAASVNSCKMTKAKRNRYLNNSVANSSTQSNNSGSFDK
For B2, the K (M,MT) of steady-state ATPase, 0.5 µM motor + 0-25 µM microtubules in test [1] turned out to be 1.6 µM. For the same molecule, the MT binding with ADP (fraction bound) (fraction bound) in test [2] was 0.6.

B3: NcdY485N dimeric motor protein (MGSM-H293-K700) (domain or fragment)
chain: MGSMHAALSTEVVHLRQRTEELLRCNEQQAAELETCKEQLFQSNMERKELHNTVMDLRGNIRVFCRIRPPLESEENRMCCTWTYHDESTVELQSIDAQAKSKMGQQIFSFDQVFHPLSSQSDIFEMVSPLIQSALDGYNICIFAYGQTGSGKTYTMDGVPESVGVIPRTVDLLFDSIRGYRNLGWEYEIKATFLEINNEVLYDLLSNEQKDMEIRMAKNNKNDIYVSNITEETVLDPNHLRHLMHTAKMNRATASTAGNERSSRSHAVTKLELIGRHAEKQEISVGSINLVDLAGSESPKTSTRMTETKNINRSLSELTNVILALLQKQDHIPYRNSKLTHLLMPSLGGNSKTLMFINVSPFQDCFQESVKSLRFAASVNSCKMTKAKRNRYLNNSVANSSTQSNNSGSFDK
In turn, B3 registered an MT binding with ADP (fraction bound) (fraction bound) in test [2] of 0.37.

B4: NcdY485E dimeric motor protein (MGSM-H293-K700) (domain or fragment)
chain: MGSMHAALSTEVVHLRQRTEELLRCNEQQAAELETCKEQLFQSNMERKELHNTVMDLRGNIRVFCRIRPPLESEENRMCCTWTYHDESTVELQSIDAQAKSKMGQQIFSFDQVFHPLSSQSDIFEMVSPLIQSALDGYNICIFAYGQTGSGKTYTMDGVPESVGVIPRTVDLLFDSIRGYRNLGWEYEIKATFLEIENEVLYDLLSNEQKDMEIRMAKNNKNDIYVSNITEETVLDPNHLRHLMHTAKMNRATASTAGNERSSRSHAVTKLELIGRHAEKQEISVGSINLVDLAGSESPKTSTRMTETKNINRSLSELTNVILALLQKQDHIPYRNSKLTHLLMPSLGGNSKTLMFINVSPFQDCFQESVKSLRFAASVNSCKMTKAKRNRYLNNSVANSSTQSNNSGSFDK
The molecule B4 had an MT binding with ADP (fraction bound) (fraction bound) in test [2] of 0.29.
